Results: paper PMC9482650, “Quantitative fragmentomics allow affinity mapping of interactomes” (Nature Communications, 2022)

These binders were tested against T1, APBA3_1, O96018 (assay: holdup assay). Conditions: plain residues with an end cap or a label only (N-terminal biotin on a linker: ttds).
T1 sequence (O96018 389-490, limits assumed, looked up): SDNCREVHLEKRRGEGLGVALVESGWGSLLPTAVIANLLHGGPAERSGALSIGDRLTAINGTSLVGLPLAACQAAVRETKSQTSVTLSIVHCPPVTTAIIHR
Design: key: below the threshold = too weak to quantify, mostly under pKd 3.1 to 4
SSLQSLETSV [ATP2B4, P23634] was tested, and the pKd was “below the threshold”. KKYVDAETSL [SLC4A7, Q9Y6M7] was tested, and the pKd was “below the threshold”.

The binders below were run against T2, ARHGEF11, O15085 (assay: holdup assay). Conditions: plain residues with an end cap or a label only (N-terminal biotin on a linker: ttds).
T2 sequence (O15085 42-136, limits assumed, looked up): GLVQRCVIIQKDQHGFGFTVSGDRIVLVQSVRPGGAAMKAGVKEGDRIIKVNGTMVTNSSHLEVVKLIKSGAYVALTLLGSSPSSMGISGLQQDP
Design: key: below the threshold = too weak to quantify, mostly under pKd 3.1 to 4
With SSLQSLETSV [ATP2B4, P23634] the pKd was 4.43. Work on KKYVDAETSL [SLC4A7, Q9Y6M7] yielded a pKd of 3.97.

What follows are binders tested against T3, DFNB31_1, Q9P202 (assay: holdup assay). Conditions: plain residues with an end cap or a label only (N-terminal biotin on a linker: ttds).
T3 sequence (Q9P202 135-233, limits assumed, looked up): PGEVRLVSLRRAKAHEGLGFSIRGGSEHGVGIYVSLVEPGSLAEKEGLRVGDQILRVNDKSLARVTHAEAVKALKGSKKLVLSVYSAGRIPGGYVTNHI
Design: key: below the threshold = too weak to quantify, mostly under pKd 3.1 to 4
With SSLQSLETSV [ATP2B4, P23634] the pKd was 4.17. In the case of KKYVDAETSL [SLC4A7, Q9Y6M7], the pKd is reported as 3.98.

The binders below were run against T4, DLG3_1, Q92796 (assay: holdup assay). Conditions: plain residues with an end cap or a label only (N-terminal biotin on a linker: ttds).
T4 sequence (Q92796 125-227, limits assumed, looked up): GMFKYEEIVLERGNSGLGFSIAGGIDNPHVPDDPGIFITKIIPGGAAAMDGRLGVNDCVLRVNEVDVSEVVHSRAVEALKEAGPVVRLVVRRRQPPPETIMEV
Design: key: below the threshold = too weak to quantify, mostly under pKd 3.1 to 4
SSLQSLETSV [ATP2B4, P23634] gave a pKd of 4.35. Work on KKYVDAETSL [SLC4A7, Q9Y6M7] yielded a pKd of 3.49.

Each binder was assayed against DLG4_2, P78352 (assay: holdup assay). Conditions: plain residues with an end cap or a label only (N-terminal biotin on a linker: ttds).
Sequence of DLG4_2, P78352 (P78352 155-259): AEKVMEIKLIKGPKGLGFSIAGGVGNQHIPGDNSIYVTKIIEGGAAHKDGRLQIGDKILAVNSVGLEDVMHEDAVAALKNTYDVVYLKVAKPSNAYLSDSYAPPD
Design: key: below the threshold = too weak to quantify, mostly under pKd 3.1 to 4
Work on SSLQSLETSV [ATP2B4, P23634] yielded a pKd of 5.18. In the case of KKYVDAETSL [SLC4A7, Q9Y6M7], the pKd is reported as “below the threshold”.

Each binder was assayed against FRMPD3, Q5JV73 (assay: holdup assay). Conditions: plain residues with an end cap or a label only (N-terminal biotin on a linker: ttds).
Sequence of FRMPD3, Q5JV73 (Q5JV73 12-100): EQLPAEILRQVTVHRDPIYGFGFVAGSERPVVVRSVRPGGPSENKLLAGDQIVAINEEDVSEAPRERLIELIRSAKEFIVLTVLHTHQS
Design: key: below the threshold = too weak to quantify, mostly under pKd 3.1 to 4
With SSLQSLETSV [ATP2B4, P23634] the pKd was “below the threshold”. KKYVDAETSL [SLC4A7, Q9Y6M7] was tested, and the pKd was 3.58.

Each binder was assayed against GRID2IP_2, A4D2P6 (assay: holdup assay). Conditions: plain residues with an end cap or a label only (N-terminal biotin on a linker: ttds).
Sequence of GRID2IP_2, A4D2P6 (A4D2P6 272-370): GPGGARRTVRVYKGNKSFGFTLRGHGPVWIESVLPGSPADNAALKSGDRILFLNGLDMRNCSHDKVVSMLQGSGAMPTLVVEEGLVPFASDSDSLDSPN
Design: key: below the threshold = too weak to quantify, mostly under pKd 3.1 to 4
For SSLQSLETSV [ATP2B4, P23634], the pKd was “below the threshold”. With KKYVDAETSL [SLC4A7, Q9Y6M7] the pKd was 4.02.

The binders below were run against T5, GRIP1_4, Q9Y3R0 (assay: holdup assay). Conditions: plain residues with an end cap or a label only (N-terminal biotin on a linker: ttds).
T5 sequence (Q9Y3R0 467-571, limits assumed, looked up): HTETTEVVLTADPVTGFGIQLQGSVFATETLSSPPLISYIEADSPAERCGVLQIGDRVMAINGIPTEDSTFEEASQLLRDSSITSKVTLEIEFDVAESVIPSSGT
Design: key: below the threshold = too weak to quantify, mostly under pKd 3.1 to 4
SSLQSLETSV [ATP2B4, P23634] was tested, and the pKd was “below the threshold”. KKYVDAETSL [SLC4A7, Q9Y6M7] was tested, and the pKd was “below the threshold”.

Each binder was assayed against GRIP2_4, Q9C0E4 (assay: holdup assay). Conditions: plain residues with an end cap or a label only (N-terminal biotin on a linker: ttds).
Sequence of GRIP2_4, Q9C0E4 (Q9C0E4 446-548): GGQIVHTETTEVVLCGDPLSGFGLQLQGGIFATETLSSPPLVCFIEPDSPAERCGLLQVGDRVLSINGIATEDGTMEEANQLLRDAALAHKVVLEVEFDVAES
Design: key: below the threshold = too weak to quantify, mostly under pKd 3.1 to 4
With SSLQSLETSV [ATP2B4, P23634] the pKd was “below the threshold”. For KKYVDAETSL [SLC4A7, Q9Y6M7], the pKd was “below the threshold”.

Each binder was assayed against GRIP2_6, Q9C0E4 (assay: holdup assay). Conditions: plain residues with an end cap or a label only (N-terminal biotin on a linker: ttds).
Sequence of GRIP2_6, Q9C0E4 (Q9C0E4 648-740): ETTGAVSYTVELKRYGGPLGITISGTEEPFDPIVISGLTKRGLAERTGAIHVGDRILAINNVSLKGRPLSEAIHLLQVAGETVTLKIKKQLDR
Design: key: below the threshold = too weak to quantify, mostly under pKd 3.1 to 4
For SSLQSLETSV [ATP2B4, P23634], the pKd was “below the threshold”. In the case of KKYVDAETSL [SLC4A7, Q9Y6M7], the pKd is reported as “below the threshold”.

The binders below were run against T6, HTRA3, P83110 (assay: holdup assay). Conditions: plain residues with an end cap or a label only (N-terminal biotin on a linker: ttds).
T6 sequence (P83110 354-453, limits assumed, looked up): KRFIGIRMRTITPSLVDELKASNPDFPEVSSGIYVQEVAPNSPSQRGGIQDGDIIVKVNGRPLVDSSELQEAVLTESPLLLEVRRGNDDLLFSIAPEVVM
Design: key: below the threshold = too weak to quantify, mostly under pKd 3.1 to 4
In the case of SSLQSLETSV [ATP2B4, P23634], the pKd is reported as 3.51. For KKYVDAETSL [SLC4A7, Q9Y6M7], the pKd was “below the threshold”.

What follows are binders tested against IL16_1, Q14005 (assay: holdup assay). Conditions: plain residues with an end cap or a label only (N-terminal biotin on a linker: ttds).
Sequence of IL16_1, Q14005 (Q14005 210-306): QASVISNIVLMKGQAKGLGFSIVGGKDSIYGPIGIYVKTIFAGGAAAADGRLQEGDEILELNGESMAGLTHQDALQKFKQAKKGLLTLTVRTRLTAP
Design: key: below the threshold = too weak to quantify, mostly under pKd 3.1 to 4
SSLQSLETSV [ATP2B4, P23634] was tested, and the pKd was 4.7. In the case of KKYVDAETSL [SLC4A7, Q9Y6M7], the pKd is reported as “below the threshold”.

What follows are binders tested against IL16_4, Q14005 (assay: holdup assay). Conditions: plain residues with an end cap or a label only (N-terminal biotin on a linker: ttds).
Sequence of IL16_4, Q14005 (Q14005 1229-1329): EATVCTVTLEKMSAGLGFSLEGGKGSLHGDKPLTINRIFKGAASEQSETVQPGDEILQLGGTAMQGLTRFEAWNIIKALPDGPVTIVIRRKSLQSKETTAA
Design: key: below the threshold = too weak to quantify, mostly under pKd 3.1 to 4
For SSLQSLETSV [ATP2B4, P23634], the pKd was “below the threshold”. In the case of KKYVDAETSL [SLC4A7, Q9Y6M7], the pKd is reported as 3.53.

The binders below were run against LNX1_2, Q8TBB1 (assay: holdup assay). Conditions: plain residues with an end cap or a label only (N-terminal biotin on a linker: ttds).
Sequence of LNX1_2, Q8TBB1 (Q8TBB1 371-470): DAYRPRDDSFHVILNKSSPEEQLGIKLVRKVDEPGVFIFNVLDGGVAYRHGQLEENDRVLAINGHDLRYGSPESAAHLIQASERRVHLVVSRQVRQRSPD
Design: key: below the threshold = too weak to quantify, mostly under pKd 3.1 to 4
For SSLQSLETSV [ATP2B4, P23634], the pKd was 3.7. For KKYVDAETSL [SLC4A7, Q9Y6M7], the pKd was “below the threshold”.

These binders were tested against T7, LNX2_3, Q8N448 (assay: holdup assay). Conditions: plain residues with an end cap or a label only (N-terminal biotin on a linker: ttds).
T7 sequence (Q8N448 463-564, limits assumed, looked up): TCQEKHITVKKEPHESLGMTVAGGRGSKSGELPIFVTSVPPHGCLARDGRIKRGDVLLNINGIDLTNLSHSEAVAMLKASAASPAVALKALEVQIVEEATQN
Design: key: below the threshold = too weak to quantify, mostly under pKd 3.1 to 4
With SSLQSLETSV [ATP2B4, P23634] the pKd was “below the threshold”. In the case of KKYVDAETSL [SLC4A7, Q9Y6M7], the pKd is reported as “below the threshold”.

The binders below were run against T8, LRRC7, Q96NW7 (assay: holdup assay). Conditions: plain residues with an end cap or a label only (N-terminal biotin on a linker: ttds).
T8 sequence (Q96NW7 1440-1537, limits assumed, looked up): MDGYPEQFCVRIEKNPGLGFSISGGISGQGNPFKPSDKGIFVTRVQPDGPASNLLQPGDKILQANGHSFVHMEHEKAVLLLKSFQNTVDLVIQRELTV
Design: key: below the threshold = too weak to quantify, mostly under pKd 3.1 to 4
For SSLQSLETSV [ATP2B4, P23634], the pKd was “below the threshold”. KKYVDAETSL [SLC4A7, Q9Y6M7] was tested, and the pKd was “below the threshold”.

These binders were tested against MAGI1_1, Q96QZ7 (assay: holdup assay). Conditions: plain residues with an end cap or a label only (N-terminal biotin on a linker: ttds).
Sequence of MAGI1_1, Q96QZ7 (Q96QZ7 1-106): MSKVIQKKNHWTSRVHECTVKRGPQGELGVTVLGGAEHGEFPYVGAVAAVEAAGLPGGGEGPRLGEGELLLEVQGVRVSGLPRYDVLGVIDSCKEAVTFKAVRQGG
Design: key: below the threshold = too weak to quantify, mostly under pKd 3.1 to 4
Binder SSLQSLETSV [ATP2B4, P23634] has a pKd of 3.71. KKYVDAETSL [SLC4A7, Q9Y6M7] was tested, and the pKd was “below the threshold”.

The binders below were run against MAGI3_2, Q5TCQ9 (assay: holdup assay). Conditions: plain residues with an end cap or a label only (N-terminal biotin on a linker: ttds).
Sequence of MAGI3_2, Q5TCQ9 (Q5TCQ9 398-503): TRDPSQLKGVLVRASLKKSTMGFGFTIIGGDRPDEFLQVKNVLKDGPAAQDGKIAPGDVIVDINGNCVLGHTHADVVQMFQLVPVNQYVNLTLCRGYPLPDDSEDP
Design: key: below the threshold = too weak to quantify, mostly under pKd 3.1 to 4
SSLQSLETSV [ATP2B4, P23634] showed a pKd of 4.79. With KKYVDAETSL [SLC4A7, Q9Y6M7] the pKd was “below the threshold”.

Each binder was assayed against MAST2, Q6P0Q8 (assay: holdup assay). Conditions: plain residues with an end cap or a label only (N-terminal biotin on a linker: ttds).
Sequence of MAST2, Q6P0Q8 (Q6P0Q8 1099-1202): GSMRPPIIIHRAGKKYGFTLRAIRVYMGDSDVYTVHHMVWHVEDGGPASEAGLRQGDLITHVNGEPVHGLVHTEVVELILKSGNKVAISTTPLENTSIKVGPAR
Design: key: below the threshold = too weak to quantify, mostly under pKd 3.1 to 4
For SSLQSLETSV [ATP2B4, P23634], the pKd was 5.53. With KKYVDAETSL [SLC4A7, Q9Y6M7] the pKd was 6.38.

These binders were tested against NHERF4_4, Q86UT5 (assay: holdup assay). Conditions: plain residues with an end cap or a label only (N-terminal biotin on a linker: ttds).
Sequence of NHERF4_4, Q86UT5 (Q86UT5 464-550): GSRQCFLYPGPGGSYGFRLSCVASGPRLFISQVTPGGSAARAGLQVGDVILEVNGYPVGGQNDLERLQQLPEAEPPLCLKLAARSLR
Design: key: below the threshold = too weak to quantify, mostly under pKd 3.1 to 4
For SSLQSLETSV [ATP2B4, P23634], the pKd was “below the threshold”. KKYVDAETSL [SLC4A7, Q9Y6M7] was tested, and the pKd was “below the threshold”.

These binders were tested against PARD3_3, Q8TEW0 (assay: holdup assay). Conditions: plain residues with an end cap or a label only (N-terminal biotin on a linker: ttds).
Sequence of PARD3_3, Q8TEW0 (Q8TEW0 582-685): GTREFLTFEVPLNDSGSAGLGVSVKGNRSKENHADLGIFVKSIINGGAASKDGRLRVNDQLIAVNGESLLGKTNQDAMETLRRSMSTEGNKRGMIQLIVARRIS
Design: key: below the threshold = too weak to quantify, mostly under pKd 3.1 to 4
With SSLQSLETSV [ATP2B4, P23634] the pKd was 3.87. KKYVDAETSL [SLC4A7, Q9Y6M7] was tested, and the pKd was 3.62.

These binders were tested against T9, PDZD2_2, O15018 (assay: holdup assay). Conditions: plain residues with an end cap or a label only (N-terminal biotin on a linker: ttds).
T9 sequence (O15018 329-429, limits assumed, looked up): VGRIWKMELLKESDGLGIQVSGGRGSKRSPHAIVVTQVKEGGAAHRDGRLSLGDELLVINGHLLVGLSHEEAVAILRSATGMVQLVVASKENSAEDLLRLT
Design: key: below the threshold = too weak to quantify, mostly under pKd 3.1 to 4
In the case of SSLQSLETSV [ATP2B4, P23634], the pKd is reported as 4.56. KKYVDAETSL [SLC4A7, Q9Y6M7] was tested, and the pKd was 4.06.

What follows are binders tested against PTPN3, P26045 (assay: holdup assay). Conditions: plain residues with an end cap or a label only (N-terminal biotin on a linker: ttds).
Sequence of PTPN3, P26045 (P26045 505-587): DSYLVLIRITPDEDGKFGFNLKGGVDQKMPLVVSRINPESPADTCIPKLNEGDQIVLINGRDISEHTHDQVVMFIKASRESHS
Design: key: below the threshold = too weak to quantify, mostly under pKd 3.1 to 4
Work on SSLQSLETSV [ATP2B4, P23634] yielded a pKd of 5.12. KKYVDAETSL [SLC4A7, Q9Y6M7] showed a pKd of 5.04.

What follows are binders tested against SCRIB_1, Q14160 (assay: holdup assay). Conditions: plain residues with an end cap or a label only (N-terminal biotin on a linker: ttds).
Sequence of SCRIB_1, Q14160 (Q14160 718-814): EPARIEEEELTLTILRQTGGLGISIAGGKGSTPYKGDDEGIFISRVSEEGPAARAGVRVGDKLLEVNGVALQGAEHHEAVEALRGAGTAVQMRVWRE
Design: key: below the threshold = too weak to quantify, mostly under pKd 3.1 to 4
Work on SSLQSLETSV [ATP2B4, P23634] yielded a pKd of 5.03. Binder KKYVDAETSL [SLC4A7, Q9Y6M7] has a pKd of 5.54.

The binders below were run against SNX27, Q96L92 (assay: holdup assay). Conditions: plain residues with an end cap or a label only (N-terminal biotin on a linker: ttds).
Design: key: below the threshold = too weak to quantify, mostly under pKd 3.1 to 4
SSLQSLETSV [ATP2B4, P23634] showed a pKd of 5.7. In the case of KKYVDAETSL [SLC4A7, Q9Y6M7], the pKd is reported as 5.71.

These binders were tested against T10, SYNJ2BP, P57105 (assay: holdup assay). Conditions: plain residues with an end cap or a label only (N-terminal biotin on a linker: ttds).
T10 sequence (P57105 8-110, limits assumed, looked up): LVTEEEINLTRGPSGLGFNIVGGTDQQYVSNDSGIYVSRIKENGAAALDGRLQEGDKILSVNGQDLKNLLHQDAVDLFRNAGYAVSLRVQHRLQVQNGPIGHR
Design: key: below the threshold = too weak to quantify, mostly under pKd 3.1 to 4
For SSLQSLETSV [ATP2B4, P23634], the pKd was 5.66. With KKYVDAETSL [SLC4A7, Q9Y6M7] the pKd was 4.28.

Each binder was assayed against TJP2_1, Q9UDY2 (assay: holdup assay). Conditions: plain residues with an end cap or a label only (N-terminal biotin on a linker: ttds).
Sequence of TJP2_1, Q9UDY2 (Q9UDY2 24-128): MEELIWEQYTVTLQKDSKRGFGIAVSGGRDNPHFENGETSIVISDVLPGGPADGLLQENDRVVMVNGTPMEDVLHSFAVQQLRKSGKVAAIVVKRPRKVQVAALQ
Design: key: below the threshold = too weak to quantify, mostly under pKd 3.1 to 4
For SSLQSLETSV [ATP2B4, P23634], the pKd was 3.62. With KKYVDAETSL [SLC4A7, Q9Y6M7] the pKd was “below the threshold”.
